pKd: −log10 of the molar value.
How the values were obtained:
[1] = target: Taq 1C2 (Thermus aquaticus) (UniProt P19821); test: EMSA; settings: 3' end blocked with dideoxy TMP (3' ddT; unclear whether the printed 3' T is the ddT or it is added); 0.25 nM hairpin, 0.5-1000 nM enzyme, 1x Taq buffer (50 mM KCl for wild type, 95 mM KCl for mutants; full composition and pH not stated for this assay), 37 C …
[2] = target: Taq 42 G59W;L245M;L375V;E507K;K508R;E734G;F749I (Thermus aquaticus) (UniProt P19821); test: EMSA; settings: 3' end blocked with dideoxy TMP (3' ddT; unclear whether the printed 3' T is the ddT or it is added); 0.25 nM hairpin, 0.5-1000 nM enzyme, 1x Taq buffer (50 mM KCl for wild type, 95 mM KCl for mutants; full composition and pH not stated for this assay), 37 C …

“CTCCAGACACGACGCAGTTGCCCGATGGTCGACGTTCGCGAAAGCGAACGTCGACCATCGGGCAACT [hairpin primer-template]” was tested. Which pKd [1] did it give?
Its pKd is 8.72.

What about the pKd [2] of the same sequence?
The pKd was 8.56.

From paper PMC4132270
